Test results from paper PMC3223204, “Implantation Serine Proteinase 1 Exhibits Mixed Substrate Specificity that Silences Signaling via Proteinase-Activated Receptors” (PLoS ONE, 2011).

Biological target: T1, rat PAR2 (Rattus norvegicus, UniProt Q63645)
T1 construct: expressed in transfected cells; host or cells: KNRK (Kirsten virus-transformed normal rat kidney) cells
T1 sequence (Q63645 26-397): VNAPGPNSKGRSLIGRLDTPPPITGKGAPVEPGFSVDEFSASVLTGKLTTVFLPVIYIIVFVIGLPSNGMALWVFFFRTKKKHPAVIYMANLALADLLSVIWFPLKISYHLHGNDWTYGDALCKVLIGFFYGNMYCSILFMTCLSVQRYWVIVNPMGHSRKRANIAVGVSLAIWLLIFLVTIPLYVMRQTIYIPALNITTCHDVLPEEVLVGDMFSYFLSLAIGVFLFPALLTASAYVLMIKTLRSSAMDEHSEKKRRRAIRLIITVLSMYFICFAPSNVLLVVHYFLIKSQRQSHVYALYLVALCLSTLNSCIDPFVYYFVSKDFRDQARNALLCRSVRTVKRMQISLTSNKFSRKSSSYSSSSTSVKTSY
Test: Calcium signaling assay, PAR2 activation/disarming in KNRK cells
Format: cell-based
Description: The Kirsten virus-transformed normal rat kidney (KNRK) epithelial cell line expressing wild-type rat PAR2 (KNRKrPAR2), validated previously for studies of receptor activation was used to evaluate the PAR2-regulating properties of the ISP1 by the methods described previously. Human embryonic kidney cells (HEK293) that express the SV40 T-antigen were kindly provided by Dr. Jonathan Lytton, University of Calgary, Faculty of Medicine, Calgary (Alberta) Canada. The human HEK293 cells, that constitutively express both PAR1 and PAR2, were grown under similar conditions as described for the KNRK cells, but in the absence of geneticin, as outlined for the PAR-mediated calcium signaling procedure described previously. All cells were sub-cultured by dissociation in an isotonic EDTA/saline solution, pH 7.4, without the use of trypsin, to avoid cleavage of PARs.
Cell lines (grown to about 85% confluence and disaggregated with calcium-free isotonic phosphate-buffered saline containing 0.2 mM EDTA) and rat platelets (harvested from platelet-rich anti-coagulated plasma) were prepared and used as previously described. Cells were incubated for 25 min at room temperature with Fluo-3 acetoxymethyl ester (final concentration, 22 µM) along with 0.4 mM sulfinpyrazone. Cells were washed twice by centrifugation (using the following buffer without calcium) and resuspended in the calcium signaling buffer: 150 mM NaCl, 3 mM KCl, 1.5 mM CaCl2, 20 mM HEPES, 10 mM dextrose, and 0.25 mM sulfinpyrazone, pH 7.4.
Fluorescence was measured at 24 °C with an excitation wavelength of 480 nm and an emission recorded at 530 nm using an Aminco Bowman Series 2 Luminescence spectrometer (ThermoSpectronic Model FA354, Spectronic Unicam, Rochester, NY). The fluorescence signals caused by the addition of test agonists (trypsin, PAR-activating peptide or rISP1, added to 2 ml of a cell suspension of ~3 x 10^5 cells/ml) were compared with the fluorescence peak height yielded by replicate cell suspensions treated with 2 µM ionophore A23187. This concentration of A23187 was at the plateau of its concentration-response curve for a fluorescence response in Fluo-3-loaded cultured cells. Under these conditions, the calculated values for intracellular calcium in the HEK and KNRK cells were [picture] […]
Previous work has shown that the fluorescence response of a cell preparation, as a percentage relative to the signal generated by 2 µM A23187, is a valid reference standard for the comparative determination of calcium signals for all PAR agonists. The cellular calcium response was therefore recorded as a percentage of the response generated by 2 µM ionophore A23187 [6]. […]
Receptor activation was monitored as an enzyme-stimulated increase in fluorescence emission (E530). […]

B1: ISP1: recombinant implantation serine proteinase 1 expressed in Pichia pastoris, also known as Mouse Prss28 (protein, UniProt Q924N9 27-274, looked up)
Serine protease 28: KPVGIVGGQRTPPGKWPWQVSLRMYSYEVNSWVHICGGSIIHPQWILTAAHCIQSQDADPAVYRVQVGEVYLYKEQELLNISRIIIHPDYNDVSKRFDLALMQLTALLVTSTNVSPVSLPKDSSTFDSTDQCWLVGWGNLLQRVPLQPPYQLHEVKIPIQDNKSCKRAYRKKSSDEHKAVAIFDDMLCAGTSGRGPCFGDSGGPLVCWKSNKWIQVGVVSKGIDCSNNLPSIFSRVQSSLAWIHQHIQ
modifications: recombinant, Pichia pastoris-expressed
notes: recombinant implantation serine proteinase 1 expressed in Pichia pastoris, also known as Mouse Prss28
- Cellular response to PAR2-activating peptide after ISP1 pre-treatment (SLIGRL-NH2 (10 µM), concentration-dependent): diminished
- Activation of a calcium signal via PAR2 (enzyme alone): did not activate a calcium signal
- residual PAR2 activity triggered by trypsin (pre-treatment with 5 Units/ml ISP1, then trypsin (1.0 units/ml)): ~80%
- residual PAR2 activity (% of control) (pre-treatment with 20 units ISP1/ml, then trypsin (1.0 units/ml)): ~40%
